Laboratory results reported in patent publication US7291332B2, “Inflammatory mediator antagonists” (SmithKline Beecham Corporation, priority 1998, dated 2007).
Where a chain is given by its changes, count along the chain named. Names and notes keep the numbering of the source.

B1: (4) Y10A: OSM-GST fusion, alanine for Tyr 10 (protein)
chain: AAIGSCSKEARVLLGQLQKQTDLMQDTSRLLDPYIRIQGLDVPKLREHCRERPGAFPSEETLRGLGRRGFLQTLNATLGCVLHRLADLEQRLPKAQDLERSGLNIEDLEKLQMARPNILGLRNNIYCMAQLLDNSDTAEPTKAGRGASQPPTPTPASDAFQRKLEGCRFLHGYHRFMHSVGRVFSKWGESPNRSRR
modifications: left off: a dimerising Fc or GST; large carriers; small tags and cut ends
B2: (5) R11A: OSM-GST fusion, alanine for Arg 11 (protein)
chain: B1 chain with A10Y, R11A
modifications: left off: a dimerising Fc or GST; large carriers; small tags and cut ends
B3: (7) L14A: OSM-GST fusion, alanine for Leu 14 (protein)
chain: B1 chain with A10Y, L14A
modifications: left off: a dimerising Fc or GST; large carriers; small tags and cut ends
B4: (8) G15A: OSM-GST fusion, alanine for Gly 15 (protein)
chain: B1 chain with A10Y, G15A
modifications: left off: a dimerising Fc or GST; large carriers; small tags and cut ends
B5: (10) L17A: OSM-GST fusion, alanine for Leu 17 (protein)
chain: B1 chain with A10Y, L17A
modifications: left off: a dimerising Fc or GST; large carriers; small tags and cut ends
B6: (11) Q18A: OSM-GST fusion, alanine for Gln 18 (protein)
chain: B1 chain with A10Y, Q18A
modifications: left off: a dimerising Fc or GST; large carriers; small tags and cut ends
B7: (12) K19A: OSM-GST fusion, alanine for Lys 19 (protein)
chain: B1 chain with A10Y, K19A
modifications: left off: a dimerising Fc or GST; large carriers; small tags and cut ends
B8: (14) T21A: OSM-GST fusion, alanine for Thr 21 (protein)
chain: B1 chain with A10Y, T21A
modifications: left off: a dimerising Fc or GST; large carriers; small tags and cut ends
B9: (15) D22: OSM-GST fusion, alanine for Asp 22 (protein)
chain: B1 chain with A10Y, D22A
modifications: left off: a dimerising Fc or GST; large carriers; small tags and cut ends
B10: (16) M113A: OSM-GST fusion, alanine for Met 113 (protein)
chain: B1 chain with A10Y, M113A
modifications: left off: a dimerising Fc or GST; large carriers; small tags and cut ends
B11: (17) P116A: OSM-GST fusion, alanine for Pro 116 (protein)
chain: B1 chain with A10Y, P116A
modifications: left off: a dimerising Fc or GST; large carriers; small tags and cut ends
B12: (18) N117A: OSM-GST fusion, alanine for Asn 117 (protein)
chain: B1 chain with A10Y, N117A
modifications: left off: a dimerising Fc or GST; large carriers; small tags and cut ends
B13: (19) L119A: OSM-GST fusion, alanine for Leu 119 (protein)
chain: B1 chain with A10Y, L119A
modifications: left off: a dimerising Fc or GST; large carriers; small tags and cut ends
B14: (21) R122A: OSM-GST fusion, alanine for Arg 122 (protein)
chain: B1 chain with A10Y, R122A
modifications: left off: a dimerising Fc or GST; large carriers; small tags and cut ends
B15: (24) Y126A: OSM-GST fusion, alanine for Tyr 126 (protein)
chain: B1 chain with A10Y, Y126A
modifications: left off: a dimerising Fc or GST; large carriers; small tags and cut ends
B16: (25) Y130A: OSM-GST fusion, alanine for Gln 130 (protein)
chain: B1 chain with A10Y, Q130A
modifications: left off: a dimerising Fc or GST; large carriers; small tags and cut ends
B17: (26) Q25A: OSM-GST fusion, alanine for Gln 25 (protein)
chain: B1 chain with A10Y, Q25A
modifications: left off: a dimerising Fc or GST; large carriers; small tags and cut ends
B18: (27) D26A: OSM-GST fusion, alanine for Asp 26 (protein)
chain: B1 chain with A10Y, D26A
modifications: left off: a dimerising Fc or GST; large carriers; small tags and cut ends

tested on: HepG2 B6 cells (STAT-sPAP reporter); test: OSM-GST mutant driven sPAP production in HepG2 B6 assay; type: cell-based, human; conditions: not given
Protocol: HepG2 B6 cells were plated into 96 well plates to a final concentration of 3×10^4 cells per well in 100 μl of media (DMEM (Sigma), 10% HI FCS, 1% non-essential amino acids, 2 mM Glutamine, 500 μg ml^−1 G418, (all from Life Technologies)). Cells were allowed to equilibrate for 48 hours. Putative anti-OSM solid compounds were made up to a stock dilution of 20 mM in DMSO and serially diluted 1:3 in DMSO. This was then further diluted in HepG26B assay media, this is as above media but with 1% heat inactivated FCS, low alkaline phosphatase activity (Life Technologies) substituted for 10% HI FCS. Compounds were diluted 1:3 from a top concentration of […] to a final concentration of 0.09 μM in a final concentration of 1% DMSO. (That is 200, 66.67, 22.22, 7.41, 2.47, 0.82, 0.27, 0.09 and 0 μM). The old media was removed from the wells and replaced with diluted compound also containing 2 ng ml^−1 OSM (R&D Systems), cells were incubated for a further 20 hours. Each dilution was performed in triplicate. 20 μl of media was removed from each well and assayed for sPAP activity using pNPP (p-Nitrophenyl phosphate; Sigma), as a substrate. Endogenous alkaline phosphatase is blocked with L-homoarginine. Optical density of substrate is read at 405-650 nm. Concentration of compound is plotted against OD as a measure of sPAP produced and can be analysed to determine IC50 values.
The assay described in Example 7b above was employed. OSM-GST mutants were diluted to a concentration of 100 ng ml^−using the known concentration of intact OSM mutants generated in Example 9b. A wild type OSM-GST was included for control purposes. Dilutions were made in HepG2 B6 media with 1% heat inactivated FCS, low alkaline phosphatase activity. Serial 1:3 dilutions were then made. (100; 33.33; 11.11; 3.7; 1.23; 0.4 ng ml^−1). 3×10^4 HepG2 B6 were dispensed into individual well of a 96 well plate in 100 μl of media. Cells were allowed to equilibrate for 48 hours. Media was then removed and replaced with 100 μl of diluted OSM-GST mutant. Cells were incubated for a further 20 hours. Each dilution was performed in triplicate. 20 μl of media was removed and assayed for sPAP using pNPP as a substrate. Endogenous ALP was blocked with L-homoarginine. O.D. was read at 405-650 nm. The experiment was repeated twice.

How did the “Expt 1 EC50” value turn out when “wild type: wild type human OSM-GST fusion protein [reference compound]” was run?
The value was 0.024 µg/mL.

What about the “Expt 2 EC50” value of the same molecule?
Its value is 0.032 µg/mL.

Which “Expt 1 EC50” value does the source give for B1 here?
Its value is 0.0324 µg/mL.

And the “Expt 2 EC50” value?
Its value is 0.082 µg/mL.

What does the source list for B2?
Expt 1 EC50: 0.0286 µg/mL; Expt 2 EC50: 0.0277 µg/mL

For B3, which “Expt 1 EC50” value is on record?
Its value is 0.0194 µg/mL.

And the “Expt 2 EC50” value?
Its value is 0.0249 µg/mL.

What does the source list for B4?
Expt 1 EC50: 0.021 µg/mL; Expt 2 EC50: 0.0178 µg/mL

For B5, which “Expt 1 EC50” value is on record?
The value was 0.0727 µg/mL.

What about the “Expt 2 EC50” value of the same molecule?
The value was 0.056 µg/mL.

B6 was tested. Which “Expt 1 EC50” value did it give?
The value was 0.0202 µg/mL.

And the “Expt 2 EC50” value?
Its value is 0.0217 µg/mL.

Which “Expt 1 EC50” value does the source give for B7 here?
The value was 0.0236 µg/mL.

What about the “Expt 2 EC50” value of the same molecule?
Its value is 0.0119 µg/mL.

B8 was tested. Which “Expt 1 EC50” value did it give?
The value was 0.017 µg/mL.

And the “Expt 2 EC50” value?
Its value is 0.0105 µg/mL.

What does the source list for B9?
Expt 1 EC50: 0.0367 µg/mL; Expt 2 EC50: 0.016 µg/mL

What does the source list for B10?
Expt 1 EC50: 0.0256 µg/mL; Expt 2 EC50: 0.025 µg/mL

How did the “Expt 1 EC50” value turn out when B11 was run?
Its value is 0.025 µg/mL.

And the “Expt 2 EC50” value?
Its value is 0.015 µg/mL.

What does the source list for B12?
Expt 1 EC50: 0.058 µg/mL; Expt 2 EC50: 0.0425 µg/mL

For B13, which “Expt 1 EC50” value is on record?
Its value is 0.0278 µg/mL.

What about the “Expt 2 EC50” value of the same molecule?
Its value is 0.023 µg/mL.

Which results are given for B14?
Expt 1 EC50: 0.0324 µg/mL; Expt 2 EC50: 0.0138 µg/mL; Expt 3 EC50: 0.0473 µg/mL

How did the “Expt 1 EC50” value turn out when B15 was run?
Its value is 0.093 µg/mL.

What about the “Expt 2 EC50” value of the same molecule?
Its value is 0.0103 µg/mL.

And the “Expt 3 EC50” value?
The value was 0.0408 µg/mL.

Which results are given for B16?
Expt 1 EC50: 0.0125 µg/mL; Expt 2 EC50: 0.0082 µg/mL

Which results are given for B17?
Expt 1 EC50: 0.0133 µg/mL; Expt 2 EC50: 0.013 µg/mL

B18 was tested. Which “Expt 1 EC50” value did it give?
The value was 0.0195 µg/mL.

And the “Expt 2 EC50” value?
The value was 0.0255 µg/mL.

same assay, conditions: relative to wild type, from Mean %

How did the “'Potency'” value turn out when B1 was run?
The value was “LESS (>120% Less potent than wild type)”.

With B2 as the molecule, how does the “'Potency'” value read?
The value was “EQUAL (80-120% Equal potency)”.

With B3 as the molecule, how does the “'Potency'” value read?
The value was “MORE (<80% More potent)”.

Which “'Potency'” value does the source give for B4 here?
Its value is “MORE (<80% More potent)”.

Which “'Potency'” value does the source give for B5 here?
Its value is “LESS (>120% Less potent than wild type)”.

Which “'Potency'” value does the source give for B6 here?
The value was “MORE (<80% More potent)”.

How did the “'Potency'” value turn out when B7 was run?
The value was “MORE (<80% More potent)”.

Which “'Potency'” value does the source give for B8 here?
Its value is “MORE (<80% More potent)”.

With B9 as the molecule, how does the “'Potency'” value read?
Its value is “EQUAL (80-120% Equal potency)”.

Which “'Potency'” value does the source give for B10 here?
The value was “EQUAL (80-120% Equal potency)”.

How did the “'Potency'” value turn out when B11 was run?
Its value is “MORE (<80% More potent)”.

B12 was tested. Which “'Potency'” value did it give?
The value was “LESS (>120% Less potent than wild type)”.

With B13 as the molecule, how does the “'Potency'” value read?
Its value is “EQUAL (80-120% Equal potency)”.

With B14 as the molecule, how does the “'Potency'” value read?
Its value is “EQUAL (80-120% Equal potency)”.

B15 was tested. Which “'Potency'” value did it give?
Its value is “LESS (>120% Less potent than wild type)”.

B16 was tested. Which “'Potency'” value did it give?
The value was “MORE (<80% More potent)”.

With B17 as the molecule, how does the “'Potency'” value read?
The value was “MORE (<80% More potent)”.

How did the “'Potency'” value turn out when B18 was run?
The value was “EQUAL (80-120% Equal potency)”.
